Measurements as given in patent US6545128 (BURNHAM INSTITUTE, dated 2003).

Biological target: T1, 35S-labeled in vitro translated HA-tagged BI-2 (human, UniProt Q9NZS9 1-450, 35S-labeled methionine (in vitro translation))
T1 construct: Made by TNT rabbit reticulocyte in vitro transcription/translation; also called HA-BI-2; not shown: three copies of the HA tag at the N-terminus (vector pSN503)
T1 sequence: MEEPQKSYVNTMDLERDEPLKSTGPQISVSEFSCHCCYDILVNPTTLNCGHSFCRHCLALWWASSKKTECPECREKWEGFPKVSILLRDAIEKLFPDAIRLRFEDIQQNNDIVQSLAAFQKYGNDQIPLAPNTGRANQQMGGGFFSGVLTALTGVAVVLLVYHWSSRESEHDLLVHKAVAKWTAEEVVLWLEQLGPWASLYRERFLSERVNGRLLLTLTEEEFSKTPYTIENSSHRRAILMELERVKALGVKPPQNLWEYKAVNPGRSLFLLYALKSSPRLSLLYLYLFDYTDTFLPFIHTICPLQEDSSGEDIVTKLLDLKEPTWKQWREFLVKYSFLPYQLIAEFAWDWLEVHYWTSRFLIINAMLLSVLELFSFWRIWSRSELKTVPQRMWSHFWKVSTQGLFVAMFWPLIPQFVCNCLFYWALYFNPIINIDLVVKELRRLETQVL
Test: GST pull-down: about 5 ug GST fusion protein on glutathione SEPHAROSE, 35S-labeled in vitro translated HA-BI-2, SDS-PAGE and autoradiography
Method: Approximately 5 µg of the following fusion proteins, including GST control, GST-CD40 cytosolic domain, GST-Bcl-2, GST-Bax or GST-BI-2, were immobilized on glutathione SEPHAROSE, then 8 µl of ^35S-labeled in vitro translated HA-tagged BI-2 in binding buffer was added. After incubation at 4° C. for 2 hr, the beads were washed 5× with binding buffer and the associated proteins were eluted in Laemli sample buffer and analyzed by SDS-PAGE (10% gel). As a control, ^35S-labeled BI-2 was loaded directly into the gel, using one-quarter the amount employed for the binding experiments. Following electrophoresis, the gels were dried and exposed to X-ray film.

- binding result: no binding
B1: GST-CD40 cytosolic domain (other, UniProt P25942 216-277, looked up)
chain: KKVAKKPTNKAPHPKQEPQEINFPDDLPGSNTAAPVQETLHGCQPVTQEDGKESRISVQERQ
notes: domain: cytosolic domain; Unrelated control protein; not shown: glutathione S-transferase (GST) fusion partner
